Biological target: DOT1L (1-416), recombinant (Homo sapiens) (UniProt Q8TEK3)
Assay: EMSA
Details: EMSA: 10 mM HEPES pH 7.3, 20 mM KCl, 1 mM MgCl2, 1 mM DTT, 5% glycerol, 100 ug/mL tRNA, room temperature 30 min; pull-down: Pierce Magnetic RNA-Protein …

Chain of UniProt Q8TEK3 (Q8TEK3 1-416): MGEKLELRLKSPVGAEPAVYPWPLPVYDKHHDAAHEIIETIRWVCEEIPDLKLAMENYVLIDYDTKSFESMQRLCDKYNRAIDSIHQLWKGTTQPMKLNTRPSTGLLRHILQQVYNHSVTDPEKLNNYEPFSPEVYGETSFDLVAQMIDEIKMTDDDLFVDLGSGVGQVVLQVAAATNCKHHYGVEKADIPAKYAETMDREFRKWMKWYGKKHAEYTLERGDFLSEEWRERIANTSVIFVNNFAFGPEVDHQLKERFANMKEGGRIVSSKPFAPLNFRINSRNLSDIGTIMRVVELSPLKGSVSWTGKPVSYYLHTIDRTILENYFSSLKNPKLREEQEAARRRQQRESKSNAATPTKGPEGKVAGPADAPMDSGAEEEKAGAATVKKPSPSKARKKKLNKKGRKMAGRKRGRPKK

How did the binding turn out when “GGGACAUUCGAGCAGCUGCUCUGGAGAAACAGCAGGAUCUACGGAAGUUUGUACCCACCGCCUCGCCUGCAGCCUCGGGAGUCUCAACCCAAGCCGGCCCGGCCUUGUAGCCCAGAGCAGCAAAGCCACAGCAGGCAACGCGAGCUAACGCGGGUCGCGCGGAGGUCGGGAGCCCAGGCGGCGGAGGCGGCGGCGGCGCAGUUAUUCCCGGGUGACUCUGGGGACUCGUGCAGAUGGGGGACGCCUCCGGCCACGCACUUGGAGCCA [LAMP5-AS1 503-764]” was run?
Its binding is “binds”.
